First the molecules themselves.
B1: RHOBTB2 (parent)
chain: HHHHGRDFLLRAASFDVCESVDEA

These results are taken from the supplement of paper PMC10567573.
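Note: lentivirally expressed fusions sorted by FACS into six bins by GFP to DsRed ratio, PSI derived from sequencing read proportions per bin multiplied by bin number.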

Variants of B1 are the subject of this data set. The data set is described as follows: protein stability index of a GFP-peptide fusion (GPS, HEK-293T) (PSI 1-6); higher = more stable. The note with it: c terminus: a fixed tail appended.
In the case of HHHHGRDFLLRAASFDVWESVDEA, the protein stability index stood at 2.48. Turning to HHHHGRDFLLRAASFDVPESVDEA, the protein stability index was found to be 4.42. With HHHHGRDFLLRAASFDVIESVDEA, the protein stability index was found to be 3.57. Turning to HHHHGRDFLLRAASFDVHESVDEA, the protein stability index is 3.4.

Turning to HHHHGRDFLLRAASFDVKESVDEA, the protein stability index turned out to be 3.94. Take HHHHGRDFLLRAASFDVNESVDEA: the protein stability index was determined as 4.21. On to HHHHGRDFLLRAASFDVYESVDEA, for which the protein stability index amounted to 2.82.

HHHHGRDFLLRAASFDVQESVDEA: the protein stability index was determined as 4.03. On to HHHHGRDFLLRAASFDVFESVDEA, for which the protein stability index was 3.54.

In the case of HHHHGRDFLLRAASFDVEESVDEA, the protein stability index came to 4.77.

On to HHHHGRDFLLRAASFDVTESVDEA, for which the protein stability index was determined as 3.7. Turning to HHHHGRDFLLRAASFDVVESVDEA, the protein stability index was determined as 3.95. Turning to HHHHGRDFLLRAASFDVRESVDEA, the protein stability index was determined as 3.65. In the case of HHHHGRDFLLRAASFDVAESVDEA, the protein stability index came to 3.96. With HHHHGRDFLLRAASFDVLESVDEA the figure was 2.9; with HHHHGRDFLLRAASFDVGESVDEA, 4.24. In the case of HHHHGRDFLLRAASFDVSESVDEA, the protein stability index is 4.06. As to HHHHGRDFLLRAASFDVMESVDEA, the protein stability index came to 3.37.

As for HHHHGRDFLLRAASFDVDESVDEA, the protein stability index stood at 4.75.

HHHHGRDFLLRAASFDYCESVDEA: the protein stability index worked out at 4.16. On to HHHHGRDFLLRAASFDHCESVDEA, for which the protein stability index turned out to be 3.55. With HHHHGRDFLLRAASFDTCESVDEA the figure was 3.53; with HHHHGRDFLLRAASFDPCESVDEA, 4.7. Consider HHHHGRDFLLRAASFDICESVDEA, for which the protein stability index was 3.37. On to HHHHGRDFLLRAASFDMCESVDEA, for which the protein stability index worked out at 3.68. With HHHHGRDFLLRAASFDLCESVDEA the figure was 3.2. Turning to HHHHGRDFLLRAASFDSCESVDEA, the protein stability index worked out at 4.11.

As for HHHHGRDFLLRAASFDWCESVDEA, the protein stability index is 3. With HHHHGRDFLLRAASFDQCESVDEA, the protein stability index stood at 4.24.

Regarding HHHHGRDFLLRAASFDDCESVDEA, the protein stability index turned out to be 4.54. HHHHGRDFLLRAASFDRCESVDEA: the protein stability index came out at 3.52. Regarding HHHHGRDFLLRAASFDCCESVDEA, the protein stability index was 4.17. With HHHHGRDFLLRAASFDGCESVDEA the figure was 3.99. HHHHGRDFLLRAASFDFCESVDEA: the protein stability index amounted to 3.12. In the case of HHHHGRDFLLRAASFDECESVDEA, the protein stability index came out at 4.56. As to HHHHGRDFLLRAASFDKCESVDEA, the protein stability index came out at 3.94.

As to HHHHGRDFLLRAASFDACESVDEA, the protein stability index was determined as 4.04.

For the variant HHHHGRDFLLRAASFDNCESVDEA, the protein stability index was determined as 4. Take HHHHGRDFLLRAASFGVCESVDEA: the protein stability index is 3.06. In the case of HHHHGRDFLLRAASFYVCESVDEA, the protein stability index is 1.67. In the case of HHHHGRDFLLRAASFNVCESVDEA, the protein stability index is 3.31. The same measure for HHHHGRDFLLRAASFQVCESVDEA: 3.5; for HHHHGRDFLLRAASFAVCESVDEA: 3.37.

HHHHGRDFLLRAASFRVCESVDEA: the protein stability index was found to be 2.48.

On to HHHHGRDFLLRAASFEVCESVDEA, for which the protein stability index worked out at 3.74. For HHHHGRDFLLRAASFLVCESVDEA, the protein stability index was 2.11. In the case of HHHHGRDFLLRAASFPVCESVDEA, the protein stability index came out at 3.19. On to HHHHGRDFLLRAASFKVCESVDEA, for which the protein stability index amounted to 2.79. In the case of HHHHGRDFLLRAASFSVCESVDEA, the protein stability index was 3.17. On to HHHHGRDFLLRAASFCVCESVDEA, for which the protein stability index was 1.97. With HHHHGRDFLLRAASFMVCESVDEA the figure was 2.44; with HHHHGRDFLLRAASFTVCESVDEA, 3.36; with HHHHGRDFLLRAASFFVCESVDEA, 1.89. As for HHHHGRDFLLRAASFHVCESVDEA, the protein stability index came to 2.84. The same measure for HHHHGRDFLLRAASFIVCESVDEA: 2.14. With HHHHGRDFLLRAASFVVCESVDEA the figure was 2.33. With HHHHGRDFLLRAASFDVCGSVDEA the figure was 3.07; with HHHHGRDFLLRAASFDVCISVDEA, 2.17; with HHHHGRDFLLRAASFDVCVSVDEA, 2.49. In the case of HHHHGRDFLLRAASFDVCDSVDEA, the protein stability index turned out to be 3.72. With HHHHGRDFLLRAASFDVCFSVDEA the figure was 2.22; with HHHHGRDFLLRAASFDVCYSVDEA, 1.74; with HHHHGRDFLLRAASFDVCRSVDEA, 2.73. For the variant HHHHGRDFLLRAASFDVCCSVDEA, the protein stability index came out at 2.42. For HHHHGRDFLLRAASFDVCWSVDEA, the protein stability index came out at 2.2. On to HHHHGRDFLLRAASFDVCSSVDEA, for which the protein stability index worked out at 2.71. On to HHHHGRDFLLRAASFDVCPSVDEA, for which the protein stability index worked out at 3.06. For the variant HHHHGRDFLLRAASFDVCHSVDEA, the protein stability index was determined as 2.9. As for HHHHGRDFLLRAASFDVCQSVDEA, the protein stability index worked out at 3.34. HHHHGRDFLLRAASFDVCMSVDEA: the protein stability index stood at 2.44. For the variant HHHHGRDFLLRAASFDVCNSVDEA, the protein stability index was 3.54. With HHHHGRDFLLRAASFDVCLSVDEA the figure was 1.56. The same measure for HHHHGRDFLLRAASFDVCKSVDEA: 3; for HHHHGRDFLLRAASFDVCTSVDEA: 2.76. In the case of HHHHGRDFLLRAASFDVCASVDEA, the protein stability index was 2.9.

As to HHHHGRDFLLRAASFDVCESNDEA, the protein stability index amounted to 4.18. Regarding HHHHGRDFLLRAASFDVCESEDEA, the protein stability index is 4.51. The same measure for HHHHGRDFLLRAASFDVCESIDEA: 3.96; for HHHHGRDFLLRAASFDVCESGDEA: 4.17. Consider HHHHGRDFLLRAASFDVCESCDEA, for which the protein stability index was determined as 3.25. With HHHHGRDFLLRAASFDVCESTDEA, the protein stability index came to 3.56. As to HHHHGRDFLLRAASFDVCESWDEA, the protein stability index worked out at 3.61. With HHHHGRDFLLRAASFDVCESLDEA, the protein stability index is 3.62. Turning to HHHHGRDFLLRAASFDVCESRDEA, the protein stability index was 3.68.

On to HHHHGRDFLLRAASFDVCESADEA, for which the protein stability index was 3.8. For HHHHGRDFLLRAASFDVCESMDEA, the protein stability index amounted to 3.92. With HHHHGRDFLLRAASFDVCESQDEA, the protein stability index came to 4.2. With HHHHGRDFLLRAASFDVCESFDEA the figure was 3.47; with HHHHGRDFLLRAASFDVCESYDEA, 3.66.

Turning to HHHHGRDFLLRAASFDVCESSDEA, the protein stability index was 3.62. Take HHHHGRDFLLRAASFDVCESDDEA: the protein stability index turned out to be 4.84. On to HHHHGRDFLLRAASFDVCESPDEA, for which the protein stability index was 3.61. Take HHHHGRDFLLRAASFDVCESHDEA: the protein stability index came out at 3.08. Take HHHHGRDFLLRAASFDVCESKDEA: the protein stability index was determined as 4.5.
